In patent EP3573716B1, “BIOLOGICALLY ACTIVE FUSION PEPTIDE FOR USE IN THE TREATMENT OF SPINAL MUSCULAR ATROPHY (SMA)” (Istituti Clinici Scientifici Maugeri Spa Società Benefit, priority 2017, dated 2026):

Experiments:
[1] = system: Smn knock-down NSC-34 motor neuronal cells (sh_Smn_519-FM5S clone); assay: Neuritogenesis and neurite outgrowth (morphometric analysis, β-tubulin III immunostaining) in Smn knock-down motor neuronal cells; type: cell-based, mouse
Experimental: (§1) The psiRNA-hH1neo G2 (InvivoGen) and sh_Smn_519 (Shafey et al. Hypomorphic Smn knockdown C2C12 myoblasts reveal intrinsic defects in myoblast fusion and myotube morphology, 2005, Exp Cell Res 311:49-61) constructs were transfected into the NSC-34 cells using FuGENE HD Transfection Reagent (Promega) according to the manufacturer's instructions. Forty-eight hours after the transfection, cells were subject to drug selection with 1 mg/ml G418 (Sigma-Aldrich) to obtain stably transfected cell lines. Two weeks after the transfection, single clones were picked and expanded in a DMEM/10% FBS/G418-based medium to obtain the psiRNA and sh_Smn_519 NSC-34 clonal cell lines, respectively. To induce differentiation, clones were maintained in culture with differentiation medium (DMed) (1:1 DMEM plus Ham's F12, 1% FBS, 1% penicillin/streptomycin, and 1% modified Eagle's medium nonessential amino acids; see 48).
Twenty-four hours after plating, psiRNA and sh_Smn_519 NSC-34 stable clones were treated with various concentrations of transducible fusion protein/peptide (3 hours). Protein/peptide in excess were subsequently removed and cells were maintained in culture in DMed for 24 and 48 hours. Cells were then fixed and stained, as described below. Neurite outgrowth and/or cell death were subsequently analyzed (see "Immunocytochemistry") .
For immunostaining, cells were incubated for 1 hour with a blocking/permeabilizing solution (5% Serum, 0.1% Triton X-100, in PBS) at room temperature. To evaluated neurite outgrowth, cells were immunostained using a mouse antibody to β-tubulin isotype III (Sigma-Aldrich). Neurite length was measured according to a protocol previously established in our laboratory using ImageJ software (National Institutes of Health) and NeuronJ plug-in. Briefly, only processes as long as twofold the average cell body dimension were considered neurites and measured. […] A total of about 100 cells per group were analyzed. […]

[2] = system: Smn knock-down NSC-34 motor neuronal cells (sh_Smn_519-FM5S clone); assay: Apoptotic cell death (cells with condensed nuclei, Hoechst 33342) in Smn knock-down motor neuronal cells; type: cell-based, mouse; conditions: 48 hours after the switch to DMed
Experimental: as §1, with “To induce differentiation, clones were maintained in culture with differentiation medium (DMed) (1:1 DMEM plus Ham's F12, 1% FBS, 1% penicillin/streptomycin, and 1% modified Eagle's medium nonessential amino acids; see 48).” left out
Twenty-four hours after plating, psiRNA and sh_Smn_519 NSC-34 stable clones were treated with various concentrations of transducible fusion protein/peptide (3 hours). […] Neurite outgrowth and/or cell death were subsequently analyzed (see "Immunocytochemistry") .
Cells were rinsed in phosphate-buffered saline (PBS) and fixed in 4% PFA for 20 min. […] The number of cells showing condensed nuclei was counted as previously described.
Subsequently, the neuroprotective activity of the two peptides was evaluated. […] Forty-height hours after the switch to DMed, the impact of the two TAT48-57-fusion peptides towards cell death was determined in terms of reduction in the number of cells with condensed nuclei. […]

B1: TAT48-57-SMN^235-294: fusion peptide of carrier peptide TAT48-57 (SEQ ID NO: 1) and SMN^235-294 carboxy-terminal domain (SEQ ID NO: 29) as active peptide portion (peptide, listed as Homo sapiens)
chain: GRKKRRQRRRPFPSGPPIIPPPPPICPDSLDDADALGSMLISWYMSGYHTGYYMGFRQNQKEGRCSHSLN
modifications: HIV-1; Fragment of the full-length human SMN protein, i.e. the SMN235-294 carboxy-terminal domain
- diminished the number of sh_Smn_519-FM5S cells without neurites ([1]; 10 nM, versus untreated sh_SMN_519-FM5S cells, 24 hours after the switch to DMed): ~40%
- concentration with significant effect on number of cells without neurites and mean length of the longest neurite per cell ([1]; sh_Smn_519-FM5S clone, 3 hours pre-incubation, then differentiating conditions (DMed)): above 10 nM
- increased the mean length of the longest neurite per cell ([1]; sh_Smn_519-FM5S clone, apparently 10 nM, versus untreated cells, 24 hours after the switch to DMed): 30%
- diminished the number of cells with condensed nuclei ([2]; 100 nM, sh_Smn_519-FM5S cells, versus untreated cells): ~45%
- concentrations significantly protective towards apoptotic cell death ([2]; sh_SMN_519-FM5S cells): 1 to 100 nM
